Assays:
[1] = target: fused glucose-6-phosphate dehydrogenase::6-phosphogluconolactonase (G6PD::6PGL) protein from Giardia lamblia (Giardia lamblia)
[2] = target: fused glucose-6-phosphate dehydrogenase::6-phosphogluconolactonase (G6PD::6PGL) protein from Giardia lamblia (Giardia lamblia); assay: SEC; Shodex Protein KW-802.5 column, 50 mM Tris buffer pH 8.75, protein incubated 2 h at 37 °C with either 0.45 M or no Gdn-HCl, flow 0.5 mL/min, calibrated with Bio-Rad standards
[3] = target: fused glucose-6-phosphate dehydrogenase::6-phosphogluconolactonase (G6PD::6PGL) protein from Giardia lamblia (Giardia lamblia); assay: SEC; Sephacryl 100 (16/60) gel filtration column, 50 mM Tris buffer pH 7.85, flow 0.5 mL/min, calibrated with Bio-Rad gel filtration standards; oligomeric state from the elution volume

fused glucose-6-phosphate dehydrogenase::6-phosphogluconolactonase (G6PD::6PGL) protein from Giardia lamblia (enzyme)
residual G6PD activity after incubation of the enzyme at 0 to 100 µg/mL for 2 h at 37 °C (stability to dilution) [1]: 100% | stoichiometry N [2]: 2 | stoichiometry N [3]: 2

From article PMC6165198
